We go through four substances from US20100297131A1.

Test [1] has as its target human erythrocytes, untreated (uncharacterized neuraminidase sensitive, trypsin resistant receptor on the surface of the erythrocyte) (human). The test can be described thus: erythrocyte rosetting on transfected COS7 cells, normalized to 5% transfection efficiency.
For test [2], the target named is neuraminidase-treated human erythrocytes (human). Briefly: erythrocyte rosetting on transfected COS7 cells, erythrocytes pretreated with neuraminidase.

Take “PfRH1 region VI (RVI) expressed on the surface of COS7 cells as a GFP fusion protein”: in test [1], the binding activity (%) is below 10%.
Consider “PfRH1 region II (RII) expressed on the surface of COS7 cells as a GFP fusion protein (from UniProt P86148 334-1000)”, for which the binding activity (%) in test [1] was above 70%. Further, the fold reduction of binding against untreated erythrocytes in test [2] came out at 10 fold.
“PfRH1 region IV (RIV) expressed on the surface of COS7 cells as a GFP fusion protein” showed a binding activity (%) in test [1] below 10%.
“PfRH1 region III (RIII) expressed on the surface of COS7 cells as a GFP fusion protein” registered a binding activity (%) in test [1] below 10%.
